Measured values: publication PMC7897774

Biological target: HLA-A*02:01
Test: differential scanning fluorimetry

| Tm of the peptide/HLA-A*02:01 complex [°C] | Molecule |
| --- | --- |
| 61.7 | F7A-modified PMEL_(209(2M)–217) epitope (peptide) |
| 61.9 | IMDQVPFSV [PMEL_(209(2M)–217) epitope (…)] |
